From the MegaScale stability set (Tsuboyama et al. 2023)

B1: r4_43_TrROS_Hall (parent)
chain: DLVTIKVPLENLEEIKKAAEKAGFKIVSISYDKENKEVTIVIEKKK

Variants of: B1
Test: folding stability dG (cDNA display proteolysis); higher = more stable
Conditions: PBS, room temperature

Folding stability dG [kcal/mol] of substitutions, site by site:
V27: Y 4.35; Q 3.48; K 3.96; G 2.59; I 3.57; L 3.51; F 3.87; E 2.88; H 3.96; M 3.99; N 3.24; A 3.48; D 2.75; W 4.34; P 1.89; R 3.96; S 3.35; T 3.77; C 3.64
A22: F 3.67; Q 3.62; Y 3.95; M 3.68; G 3.52; N 3.54; T 3.33; R 3.68; S 3.56; H 3.64; E 3.2; C 3.79; I 3.67; V 3.75; L 3.66; W 4.33; D 3.13; P 2.38; K 3.58
A18: G 3.34; V 3.73; I 3.67; M 3.94; E 3.65; R 3.72; D 3.57; Q 3.62; Y 3.84; K 3.86; W 4.29; C 3.97; T 3.43; L 3.55; H 3.77; P 1.8; S 3.65; N 3.5; F 3.45
G23: M 3.46; W 3.67; K 3.73; F 3.61; T 3.23; V 2.78; R 3.52; E 3.18; Q 3.51; D 2.75; Y 3.44; I 2.98; A 3.54; S 3.28; L 3.52; N 3.44; C 3.84; H 3.79; P 2.92
D32: L 3.21; A 3.54; S 4.21; C 3.85; F 3.67; P 2.77; W 3.62; Y 3.65; M 3.48; N 4.06; V 3.33; T 3.81; R 2.93; E 3.62; Q 3.56; H 3.67; K 3.04; G 3.82; I 3.39
K25: I 3.56; E 3.04; Y 3.88; N 3.34; W 3.57; L 3.05; C 3.06; A 3.12; V 3.08; D 2.73; H 3.2; F 3.9; M 3.63; T 3.58; G 2.89; Q 3.29; R 4.04; P 2.05; S 3.58
K33: C 3.44; W 3.76; E 3.43; R 3.93; T 3.41; I 3.85; Q 3.83; G 3.28; H 3.73; F 3.61; A 3.49; N 3.74; S 3.5; L 3.8; D 3.11; M 3.72; V 3.73; P 2.94; Y 3.42
S28: K 3.52; E 3.18; L 3.18; P 2.51; R 3.88; W 3.88; Q 3.48; A 3.71; C 3.69; T 3.48; M 3.28; F 3.77; Y 3.88; G 3.53; N 3.42; D 3.02; I 3.39; V 3.22
F24: W 3.68; P 1.47; Q 2.5; I 2.52; L 2.8; N 2.56; T 2.88; S 2.69; E 2.85; G 2.74; V 2.74; A 3.19; D 2.47; R 2.77; Y 3.53; H 2.73; K 2.51; M 2.55
Y31: M 3.19; K 3.34; H 3.41; S 2.83; A 3.06; I 3.27; Q 3.23; N 2.95; T 3.15; V 3.47; F 3.3; G 2.76; W 3.55; P 2.97; R 3.39; D 2.58; L 3.12; E 3.29; C 3.37
E20: Y 3.92; C 3.67; P 3.12; M 3.72; N 3.55; W 3.99; D 3.49; I 3.65; H 3.6; L 3.96; A 3.68; R 3.72; Q 3.28; V 3.56; F 4.07; G 3.43; T 3.27; S 3.66; K 3.62
K21: L 3.57; D 3.16; Y 4.25; M 4.03; G 3.83; T 3.9; W 4.37; H 3.78; N 3.42; P 2.74; V 3.93; C 3.87; I 3.93; F 4.43; E 2.94; A 3.79; R 4.07; S 3.93; Q 3.9
K17: P 2.14; G 3.73; V 3.69; D 3.44; R 3.43; N 3.17; L 3.73; Q 3.75; Y 4.27; S 3.72; C 3.75; E 3.45; T 3.65; M 3.82; W 4.21; H 3.83; I 3.8; F 4
I29: Q 3.28; T 3.56; A 3.16; L 3.85; M 3.79; D 1.72; W 3.93; G 1.61; K 2.44; N 1.97; S 2.98; R 2.47; H 2.76; E 3.18; V 3.67; Y 4.25; F 4.07
I26: A 2.13; R 1.21; Q 2.02; V 3.41; M 3.31; L 3.59; P 1.96; Y 2.52; H 1.53; S 1.81; F 3.31; T 2.76; E 1.75; G 0.98; W 3.12; D 1.25; K 1.31; C 3; N 1.35
E34: K 3.83; S 3.86; Q 3.89; L 4.04; A 3.48; D 3.75; M 3.74; C 3.63; G 3.8; H 3.92; N 3.77; F 3.67; P 3.68; T 3.77; I 3.88; R 3.84
S30: Q 3.47; F 3.9; P 0.669; K 3.59; T 3.66; V 3.96; A 3.4; H 3.68; W 3.71; C 3.53; G 3.22; M 3.49; E 3.4; D 3.5; Y 3.83; I 3.66; L 3.74; R 3.62; N 3.79
A19: C 3.44; G 3.23; D 1.76; E 2.89; L 3.69; V 3.97; P 1.44; K 3.32; I 3.61; M 3.95; Q 3.37; S 3.69; W 3.99; Y 3.68; H 3.45; R 3.11; F 3.52; T 3.8; N 3.55
